In US20220275049A1, “ANTIGENIC POLYPEPTIDES AND METHODS OF USE THEREOF” (AGENUS INC., priority 2019, published 2022):
Square brackets hold non-standard residues; d marks the D form. Ends that are not written are not given here. pT = C[C@@H](OP(=O)(O)O)[C@H](N)C(=O)O; pS = N[C@@H](COP(=O)(O)O)C(=O)O

The binders below were run against biotinylated HLA-B*07:02 with β2m (human) (assay: AlphaScreen, peptide titrated on biotinylated HLA + b2m). Conditions: remark: other sources report otherwise.
GPRSASLL[pS]L [GPRSASLLsL] showed a Kd of 47.1 nM.
EPR[pS]PSHSM [EPRsPSHSM] was tested, and the Kd was 199 nM.
TPR[pS]PPLGLI [TPRsPPLGLI] showed a Kd of 91 nM.
Binder GPRSA[pS]LL[pS]L [GPRSAsLLsL] has a Kd of 50 nM.
RVR[pS]PTRSP [RVRsPTRSP] was tested, and the Kd was 551 nM.
In the case of RPS[pS]LPDL [RPSsLPDL], the Kd is reported as 369 nM.
RPT[pS]RLNRL [RPTsRLNRL] was tested, and the Kd was 117 nM.
For RVA[pS]PTSGV [RVAsPTSGV], the Kd was 227 nM.
In the case of GPRSA[pS]LLSL [GPRSAsLLSL], the Kd is reported as 34.1 nM.
For QPR[pT]PSPLVL [QPRtPSPLVL], the Kd was 199 nM.
RPRPV[pS]PSSL [RPRPVsPSSL] showed a Kd of 218 nM.
Work on TPR[pS]PPLGL [TPRsPPLGL] yielded a Kd of 75.5 nM.

What follows are binders tested against biotinylated HLA-C*07:01 with β2m (human) in the same assay as above. Conditions: remark: other sources report otherwise.
RTL[pS]HISEA [RTLsHISEA] showed a Kd of 380 nM.

These binders were tested against biotinylated HLA-A*02:01 with β2m (human) in the same assay as above. Conditions: remark: other sources report otherwise.
For SMTR[pS]PPRV [SMTRsPPRV], the Kd was 701 nM.
GPRSA[pS]LL[pS]L [GPRSAsLLsL] gave a Kd of 500 nM.
Binder VLL[pS]PVPEL [VLLsPVPEL] has a Kd of 150 nM.
RQA[pS]IELPSMAV [RQAsIELPSMAV] was tested, and the Kd was 14.8 nM.
For SLFGG[pS]VKL [SLFGGsVKL], the Kd was 53.9 nM.
In the case of RQA[pS]IELPSM [RQAsIELPSM], the Kd is reported as 20.4 nM.
Binder RVA[pS]PTSGV [RVAsPTSGV] has a Kd of 242 nM.
Work on RTL[pS]HISEA [RTLsHISEA] yielded a Kd of 157 nM.
Work on KLIDRTE[pS]L [KLIDRTEsL] yielded a Kd of 260 nM.
In the case of VLY[pS]PQMAL [VLYsPQMAL], the Kd is reported as 40.5 nM.
For GLLG[pS]PVRA [GLLGsPVRA], the Kd was 431 nM.
